Data: patent publication US20260139240A1 (GRIFFITH UNIVERSITY, published 2026)

Target: T1, Wild type SubB (subtilase cytotoxin B subunit) (Escherichia coli, UniProt Q6EZC3 24-141)
T1 construct: also called SubB WT
Test: SPR (Biacore […]), […], single cycle kinetics

B1: Bovine α1-acid glycoprotein (AGP) (other)
chain: QSPECANLMTVAPITNATMDLLSGKWFYIGSAFRNPEYNKSARAIQAAFFYLEPRHAEDKLITREYQTIEDKCVYNCSFIKIYRQNGTLSKVESDREHFVDLLLSKHFRTFMLAASWNGTKNVGVSFYADKPEVTQEQKKEFLDVIKCIGIQESEIIYTDEKKDACGPLEKQHEEERKKETEAS
notes: mature; also called Bovine α1-AGP; bovine AGP
**Q.** Which Kd does the source give for B1 here?
**A.** Its Kd is 156 nM.
